From patent US20090123479A1 (published 2009)

T1: recombinant human IL-23 (human, UniProt Q9NPF7 20-189; P29460 23-328)
T1 construct: also called hIL-23
T1 sequence 1: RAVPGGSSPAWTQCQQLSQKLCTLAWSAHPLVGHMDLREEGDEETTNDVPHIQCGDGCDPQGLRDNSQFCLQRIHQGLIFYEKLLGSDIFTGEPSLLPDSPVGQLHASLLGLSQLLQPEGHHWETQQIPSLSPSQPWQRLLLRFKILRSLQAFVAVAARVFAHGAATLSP
T1 sequence 2: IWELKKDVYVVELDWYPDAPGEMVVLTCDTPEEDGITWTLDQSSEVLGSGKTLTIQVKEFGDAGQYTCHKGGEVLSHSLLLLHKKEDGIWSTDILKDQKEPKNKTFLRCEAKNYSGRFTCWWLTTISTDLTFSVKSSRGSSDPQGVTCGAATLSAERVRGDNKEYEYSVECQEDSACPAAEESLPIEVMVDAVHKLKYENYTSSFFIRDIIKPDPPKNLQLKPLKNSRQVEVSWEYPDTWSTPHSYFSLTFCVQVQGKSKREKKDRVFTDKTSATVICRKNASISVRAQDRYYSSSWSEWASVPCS


Legend:
recombinant human IL-23 [1] = target: T1, recombinant human IL-23; experiment: SPR (Biacore T100), tissue culture supernatant antibody captured on anti-human IgG, IL-23 analyte
Protocol: Biacore analysis was carried out using a capture surface on a CM5 chip. Anti-human IgG (BR-1008-39) was used as the capturing agent. Anti-human IgG was coupled to a CM5 biosensor chip by primary amine coupling. Humanized antibody was captured on this immobilised surface and defined concentrations of IL-23 were passed over this captured surface. An injection of buffer over the captured antibody surface was used for double-referencing. […] T100 Biacore machine was used to generate the data; all runs were carried out at 25° C. using HBS EP. Data was analysed using the software inherent to the machine and fitted to the 1:1 model of binding. Tables 7 and 8 detail the IL-23 binding analysis carried out on the 8C92H6.HC1LC1 chimera and selected humanized variants in two separate experiments. […] The data shown for the humanized variants is representative of a number of runs. The chimeric mAb (8C9H6.HC1LC1) was only run once in each experiment, so data shown for this mAb is from that one run.

recombinant human IL-23 [2] = target: T1, recombinant human IL-23; experiment: SPR (Biacore T100), purified material captured on Protein A or anti-human IgG, IL-23 analyte at 256, 64, 16, 4, 1 nM
Protocol: (§1) Protein A or an anti-human IgG (Biacore BR-1008-39) was immobilised on a Biacore CM5 chip by primary amine coupling in accordance with the manufacturer's instructions. Anti IL-23 antibodies were captured on this surface and after a period of stabilisation, […] was passed over the antibody captured surface and a binding sensorgram was obtained. […] All runs were double referenced with a buffer injection over the captured antibody surface. Data was analysed using the 1:1 model using the software inherent to the Biacore 3000 or T100 depending upon which machine was used to generate kinetics. Analysis was carried out at 25° C. using HBS-EP buffer. Data presented in Tables 3-6 are on tissue culture supernatants of CHO cells transiently expressing the antibody of interest unless otherwise indicated. Data was generated using concentrations of IL-23 (256, 64, 16, 4, 1 and 0.25 nM) The data shown for the humanized variants is representative of a number of runs, The chimeric mAb (8C9H6.HC1LC1) was only run once in each experiment, so data shown for this mAb is from that one run, […]

recombinant human IL-23 [3] = target: T1, recombinant human IL-23; experiment: SPR (Biacore T100), transient material captured on Protein A or anti-human IgG, IL-23 analyte at 256, 64, 16, 4, 1 nM
Protocol: as §1

recombinant human IL-23 [4] = target: T1, recombinant human IL-23; experiment: SPR (Biacore 3000), CHO supernatant antibody captured on Protein A or anti-human IgG, IL-23 analyte at 100, 10, 1 nM
Protocol: as §1, with “indicated.” for “indicated. Data was generated using concentrations of IL-23 (256, 64, 16, 4, 1 and 0.25 nM) The data shown for the humanized variants is representative of a number of runs, The chimeric mAb (8C9H6.HC1LC1) was only run once in each experiment, so data shown for this mAb is from that one run,”

recombinant human IL-23 [5] = target: T1, recombinant human IL-23; experiment: IL-23/IL-23R inhibition ELISA (first protocol, OD490): plate coated with human IL23R Fc chimera, antibody pre-incubated with constant human IL-23, bound IL-23 detected with biotinylated anti-human IL-12; purified antibody
Protocol: Chimeric and humanized mAbs were assessed for their ability to neutralise human IL-23 binding to human IL-23 receptor, and cyno IL23 binding to human IL23 receptor. Plates were coated with human IL23R Fc chimera at 1 μg/diluent (bicarbonate buffer). 50 μl/well of this mixture was incubated overnight at 4° C. The plates were then washed twice with Tris Buffered Saline with 0.05% Tween 20 (TBST). Plates were blocked with 1% BSA TBST 100 μl/well for a minimum of 1 hour at room temperature. The plates were then washed twice with Tris Buffered Saline with 0.05% Tween 20 (TBST). Various concentrations of antibody were incubated in a separate plate with a constant concentration of IL-23 for 1 hour at room temperature. 50 ul of each mixture were transferred to the assay plate and incubated at RT for 1 hr. They were then washed twice with Tris Buffered Saline with 0.05% Tween 20 (TBST). Bound IL23 was detected by anti human 1L12 Biotin labelled Ab (R&D systems BAF219) diluted to 100 ng/ml in 1% BSA TBST. 50 μl/well of the biotinylated antibody was added and incubated at RT for 1 hour. The plates were then washed twice with Tris Buffered Saline with 0.05% Tween 20 (TBST). ExtrAvidin-Peroxidase (Sigma E2886) was diluted 1/1000 in 1% BSA TBST, 50 μl/well was added to the plates. […] The plate was read at OD490 nm using the SOftmaxPRO versamax plate reader.

Kd (recombinant human IL-23 [1]) [nM]	koff (recombinant human IL-23 [1]) [s⁻¹]	kon (recombinant human IL-23 [1]) [M⁻¹ s⁻¹]	Kd (recombinant human IL-23 [2]) [nM]	koff (recombinant human IL-23 [2]) [s⁻¹]	kon (recombinant human IL-23 [2]) [M⁻¹ s⁻¹]	Kd (recombinant human IL-23 [3]) [nM]	koff (recombinant human IL-23 [3]) [s⁻¹]	kon (recombinant human IL-23 [3]) [M⁻¹ s⁻¹]	Kd (recombinant human IL-23 [4]) [nM]	koff (recombinant human IL-23 [4]) [s⁻¹]	kon (recombinant human IL-23 [4]) [M⁻¹ s⁻¹]	IC50 (read off the curve) (recombinant human IL-23 [5]) [µg/mL]	Binder
0.17	0.000234	1.38e+06	–	–	–	–	–	–	–	–	–	–	A3M0 (antibody, human IgG1, kappa, V domains shown, Full length chains; also called humanized mAb A3M0) VH: QVQLVQSGAEVKKPGSSVKVSCKASGYTFTSYGITWVRQAPGQGLEWMGENYPRSGNTYYNEKFKGRVTITADKSTSTAYMELSSLRSEDTAVYYCARSEFISTVVAPYYYALDYWGQGTLVTVSS VL: DIVMTQSPDSLAVSLGERATINCKASKKVTIFGSISALHWYQQKPGQPPKLIYNGAKLESGVPDRFSGSGSGTDFTLTISSLQAEDVAVYYCLQNKEVPYTFGGGTKVEIKR
–	–	–	2.2	0.00043	200000	1.8	0.00038	210000	1.4	0.00039	270000	~0.08	chimeric 8C92H6 HC1LC1 (antibody, V domains shown, Murine variable regions with human constant regions; also called 8C92H6.HC1LC1 Chimera; 8C9 chimera) VH: QVQLQQSGAELARPGTSVKLSCKASGYTFTSYGITWVKQRTGQGLEWIGENYPRSGNTYYNEKFKGKATLTADKSSSTAYMELRSLTSEDSAVYFCARCEFISTVVAPYYYALDYWGQGTSLVTVS VL: DIVLTQSPASLAVSLGQKATISCKASKKVTIFGSISALHWYQQKPGQPPKLIYNGAKLESGVSARFSDSGSQNRSPFGNQLSFTLTIDPVEADDAATYYCLQNKEVPYTFGGGTKLEIKR
